Measured values taken from patent US20090005253A1 (AVENTIS PHARMA S A, published 2009).

Legend:
[1] = target: T1, DNA-binding domain (DBD) of GAL4p expressed alone from pDBT (Saccharomyces cerevisiae, UniProt P04386 1-147, limits assumed); assay: yeast two-hybrid control (pRB34+pDBT), URA3 reporter in strain Y187
T1 construct: Negative control partner
Procedure: (§1) The activity of the constructs is first verified (FIGS. 6A and 6F). […] Two clones of each of these transformants are cultured on minimum medium with and without uracil ((FIGS. 6A and 6F).
Firstly, the activity of the constructs was verified. […] Two clones cotransformed by each of these pairs of plasmids are selected. Their capacity to grow on minimum medium with and without uracil is studied.

[2] = target: T2, fusion protein DBD-mdm2 (GAL4 DBD fused to the entire Mdm2 human protein) (Saccharomyces cerevisiae; human, UniProt P04386 1-147; Q00987 1-491, limits assumed); assay: yeast two-hybrid control (pTAL20+pDBT-mdm2), URA3 reporter in strain Y187
T2 construct: also called pDBT-mdm2
Procedure: as §1

[3] = target: T1, DNA-binding domain (DBD) of GAL4p …; assay: reverse two-hybrid UI strain yRB49; growth not affected on medium with 1 mM 3-AT

B1: fusion protein AD-Fe65 (GAL4 activation domain fused to amino acids 152 to 708 of Fe65) (other)
chain: MDKAELIPEPPKKKRKVELGTAANFNQSGNIADSSLSFTFTNSSNGPNLITTQTNSQALSQPIASSNVHDNFMNNEITASKIDDGNNSKPLSPGWTDQTAYNAFGITTGMFNTTTMDDVYNYLFDDEDTPPNPKKEIEFKAAGEAEEEEEDDDDEEEEEDLSSPPGLPEPLESVEAPPRPQALTDGPREHSKSASLLFGMRNSAASDEDSSWATLSQGSPSYGSPEDTDSFWNPNAFETDSDLPAGWMRVQDTSGTYYWHIPTGTTQWEPPGRASPSQGSSPQEESQLTWTGFAHGEGFEDGEFWKDEPSDEAPMELGLKEPEEGTLTFPAQSLSPEPLPQEEEKLPPRNTNPGIKCFAVRSLGWVEMTEEELAPGRSSVAVNNCIRQLSYHKNNLHDPMSGGWGEGKDLLLQLEDETLKLVEPQSQALLHAQPIISIRVWGVGRDSGRDFAYVARDKLTQMLKCHVFRCEAPAKNIATSLHEICSKIMAERRNARCLVNGLSLDHSKLVDVPFQVEFPAPKNELVQKFQVYYLGNVPVAKPVGVDVINGALESVLSSSSREQWTPSHVSVAPATLTILHQQTEAVLGECRVRFLSFLAVGRDVHTFAFIMAAGPASFCCHMFWCEPNAASLSEAVQAACMLRYQKCLDARSQASTSCLPAPPAESVARRVGWTVRRGVQSLWGSLKPKRLGAHTP
notes: also called pRB34
- binding result [1]: no binding

B2: activation domain (AD) of GAL4p expressed alone from pTAL20 (other, Saccharomyces cerevisiae, UniProt P04386 768-881, looked up)
chain: ANFNQSGNIADSSLSFTFTNSSNGPNLITTQTNSQALSQPIASSNVHDNFMNNEITASKIDDGNNSKPLSPGWTDQTAYNAFGITTGMFNTTTMDDVYNYLFDDEDTPPNPKKE
notes: Negative control partner
- binding result [2]: no binding
- binding result [3]: no binding
